Measured values from patent publication US20240384250A1, “FIBROBLAST GROWTH FACTOR 23 MODULATING COMPOUNDS” (THE UAB RESEARCH FOUNDATION, priority 2021, published 2024).

Biological target: T1, FGF23/FGFR4 binding (Homo sapiens, UniProt P22455+Q9GZV9, R179Q)
T1 construct: Fc-FGFR4 protein (human ectodomain) was immobilized; purchased R&D Systems human FGF23 2604FG025/CF; human FGFR4 685FR050
T1 sequence (Q9GZV9 25-251 R179Q): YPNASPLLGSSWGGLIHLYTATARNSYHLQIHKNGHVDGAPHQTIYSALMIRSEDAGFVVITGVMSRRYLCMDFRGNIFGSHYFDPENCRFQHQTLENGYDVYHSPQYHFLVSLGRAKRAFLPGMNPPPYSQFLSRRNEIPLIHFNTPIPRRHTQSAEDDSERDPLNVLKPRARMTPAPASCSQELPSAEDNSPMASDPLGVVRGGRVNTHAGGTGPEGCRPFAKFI
T1 sequence (P22455 22-369 limits assumed): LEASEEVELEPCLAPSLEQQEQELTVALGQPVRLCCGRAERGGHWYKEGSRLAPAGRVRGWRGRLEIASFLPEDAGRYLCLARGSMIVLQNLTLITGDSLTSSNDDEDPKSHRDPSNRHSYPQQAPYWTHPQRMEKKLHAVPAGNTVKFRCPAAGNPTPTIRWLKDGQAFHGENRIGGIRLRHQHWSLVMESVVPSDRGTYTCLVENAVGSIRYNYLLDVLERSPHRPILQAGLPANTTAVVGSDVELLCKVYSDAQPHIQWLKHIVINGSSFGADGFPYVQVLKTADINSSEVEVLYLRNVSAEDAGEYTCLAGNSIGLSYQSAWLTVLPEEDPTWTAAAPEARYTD
Test: Surface plasmon resonance, FGF23 binding to surface FGFR4 with heparin or sKL in solution
Procedure: For the direct quantitative analysis of label-free molecular interactions in real time, surface plasmon resonance studies were conducted using BIAcore T200 and T200 evaluation software (28975001, Cytiva). Sensor SA (BR100398) and CMS chips (BR100399) were from Cytiva. For the preparation of heparin chips, heparin (2 mg) and amine-PEG3-Biotin (2 mg, 21347, Pierce) were dissolved in 200 μl of H2O and 10 mg of NaCNBH3 was added. The reaction mixture was heated at 70° C. for 24 hours; an additional 10 mg of NaCNBH3 was added; and the reaction was heated at 70° C. for another 24 hours. After cooling to room temperature, the mixture was desalted with the spin column (3000 MWCO). Biotinylated heparin was collected, freeze dried, and used for chip preparation. Biotinylated heparin was immobilized to streptavidin chips according to the manufacturer's protocol. In brief, 20 μl of biotinylated heparin solution (0.1 mg/ml) in HBS-P running buffer (0.01 M N-2-hydroxyethylpiperazine-N′-2-ethanesulfonic acid, 0.15 M NaCl, 0.005% surfactant P20 [pH7.4]; BR100368, Cytiva) was injected over flow cell 2 of the streptavidin chip at a flow rate of 10 μl/min. The successful immobilization of heparin was confirmed by the observation of an approximately 200-resonance unit increase in the sensor chip. […] The response was monitored as a function of time (sensorgram) at 25° C.

sKL's effect on increasing FGFR4 affinity for FGF23 relative to heparin: 4- to 5 fold | increase in FGF23/FGFR4 binding affinity (heparin or sKL in solution): approximately 13 fold
B1: sKL: recombinant soluble α-klotho ectodomain, mouse aa 35-982 and human aa 34-981, FLAG- or Strep/His-tagged, purified from HEK293 cells (protein)
chain: EPGDGAQTWARFSRPPAPEAAGLFQGTFPDGFLWAVGSAAYQTEGGWQQHGKGASIWDTFTHHPLAPPGDSRNASLPLGAPSPLQPATGDVASDSYNNVFRDTEALRELGVTHYRFSISWARVLPNGSAGVPNREGLRYYRRLLERLRELGVQPVVTLYHWDLPQRLQDAYGGWANRALADHFRDYAELCFRHFGGQVKYWITIDNPYVVAWHGYATGRLAPGIRGSPRLGYLVAHNLLLAHAKVWHLYNTSFRPTQGGQVSIALSSHWINPRRMTDHSIKECQKSLDFVLGWFAKPVFIDGDYPESMKNNLSSILPDFTESEKKFIKGTADFFALCFGPTLSFQLLDPHMKFRQLESPNLRQLLSWIDLEFNHPQIFIVENGWFVSGTTKRDDAKYMYYLKKFIMETLKAIKLDGVDVIGYTAWSLMDGFEWHRGYSIRRGLFYVDFLSQDKMLLPKSSALFYQKLIEKNGFPPLPENQPLEGTFPCDFAWGVVDNYIQVDTTLSQFTDLNVYLWDVHHSKRLIKVDGVVTKKRKSYCVDFAAIQPQIALLQEMHVTHFRFSLDWALILPLGNQSQVNHTILQYYRCMASELVRVNITPVVALWQPMAPNQGLPRLLARQGAWENPYTALAFAEYARLCFQELGHHVKLWITMNEPYTRNMTYSAGHNLLKAHALAWHVYNEKFRHAQNGKISIALQADWIEPACPFSQKDKEVAERVLEFDIGWLAEPIFGSGDYPWVMRDWLNQRNNFLLPYFTEDEKKLIQGTFDFLALSHYTTILVDSEKEDPIKYNDYLEVQEMTDITWLNSPSQVAVVPWGLRKVLNWLKFKYGDLPMYIISNGIDDGLHAEDDQLRVYYMQNYINEALKAHILDGINLCGYFAYSFNDRTAPRFGLYRYAADQFEPKASMKHYRKIIDSNGFPGPETLERFCPEEFTVCTECSFFHTRKS
modifications: left off: small tags and cut ends
notes: recombinant soluble α-klotho ectodomain, mouse aa 35-982 and human aa 34-981, FLAG- or Strep/His-tagged, purified from HEK293 cells
